What was measured:
[1] = molecular target: 190-kD proteolytic fragment of talin (chicken) (UniProt P54939); assay: radioligand binding
[2] = molecular target: talin purified from chicken gizzard (chicken) (UniProt P54939); assay: radioligand binding

Substance: vinculin purified from chicken gizzard (natural protein)
- Kd, higher affinity of two [1]: 16 nM
- Kd, lower affinity of two [1]: 220 nM
- Kd, high affinity interaction [2]: 30 nM
- Kd, higher affinity of two [2]: 10 nM
- Kd, lower affinity interaction [2]: 550 nM
- Kd, lower affinity of two [2]: 240 nM
- N (Bmax), high affinity interaction (mol of vinculin bound per mol of talin) [2]: 0.15
- N (Bmax), lower affinity interaction (mol of vinculin bound per mol of talin) [2]: 3
